Target: rHA of clade 1 H5N1 virus A/Viet Nam/1203/04 (Influenza A virus A/Viet Nam/1203/2004 …, UniProt Q5EP31, strain)
Assay: ELISA

B1: AVFluIgG03 (antibody, V domains shown)
VH: LESGGGLVQPGGSLRVSCTNSGFTFSDYAMSWVRQAPGKGLEWVSAISGNGGSSTYYADSVKGRFTISRDNSKNTMYLQMNSLRAEDTAVYYCVRDDSYDGGGQYGLHNWFDSWGQGTLVTV
VL: ELTQPPSVSGAPGQRVTISCTGSSSNIGAGYDVHWYQQLPGTAPKLLIYGNSNRPSGVPDRFSGSKSGTSASLAITGLQAEDEADYYCQSYDSSLVVFGGGTKLTVL
notes: also called rhAb AVFluIgG03; AVFluIg03; source: SF9 cells, purified on a Protein A column
B1: no binding.
